T1: TX1BP3, O14907
T1 sequence (O14907 10-122, limits assumed, looked up): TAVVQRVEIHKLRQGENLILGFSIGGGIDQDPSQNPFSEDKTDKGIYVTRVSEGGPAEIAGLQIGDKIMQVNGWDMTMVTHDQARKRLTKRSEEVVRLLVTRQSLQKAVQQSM

T2: FRMPD1, Q5SYB0
T2 sequence (Q5SYB0 52-145, limits assumed, looked up): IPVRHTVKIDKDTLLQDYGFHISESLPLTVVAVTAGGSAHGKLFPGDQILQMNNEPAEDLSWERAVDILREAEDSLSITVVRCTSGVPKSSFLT

T3: SNTA1, Q13424
T3 sequence (Q13424 82-180, limits assumed, looked up): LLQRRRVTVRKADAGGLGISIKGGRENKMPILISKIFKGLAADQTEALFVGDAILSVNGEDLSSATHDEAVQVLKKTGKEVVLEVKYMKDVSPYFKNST

T4: LNX2_2, Q8N448
T4 sequence (Q8N448 334-432, limits assumed, looked up): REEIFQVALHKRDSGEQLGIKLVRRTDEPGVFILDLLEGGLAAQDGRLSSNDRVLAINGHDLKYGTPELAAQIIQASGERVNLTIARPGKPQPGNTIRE

T5: PDZRN3_1, Q9UPQ7
T5 sequence (Q9UPQ7 244-349, limits assumed, looked up): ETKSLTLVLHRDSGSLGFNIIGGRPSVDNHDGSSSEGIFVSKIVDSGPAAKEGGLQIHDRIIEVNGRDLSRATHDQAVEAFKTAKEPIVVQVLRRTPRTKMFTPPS

T6: DLG3_1, Q92796
T6 sequence (Q92796 125-227, limits assumed, looked up): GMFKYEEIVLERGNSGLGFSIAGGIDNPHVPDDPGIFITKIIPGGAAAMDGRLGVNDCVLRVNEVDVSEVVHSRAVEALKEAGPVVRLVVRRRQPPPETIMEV

T7: SNTG2, Q9NY99
T7 sequence (Q9NY99 68-166, limits assumed, looked up): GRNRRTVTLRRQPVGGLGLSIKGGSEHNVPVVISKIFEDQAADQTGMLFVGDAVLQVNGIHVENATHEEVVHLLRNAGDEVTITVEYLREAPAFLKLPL

T8: PCLO, Q9Y6V0
T8 sequence (Q9Y6V0 4491-4600, limits assumed, looked up): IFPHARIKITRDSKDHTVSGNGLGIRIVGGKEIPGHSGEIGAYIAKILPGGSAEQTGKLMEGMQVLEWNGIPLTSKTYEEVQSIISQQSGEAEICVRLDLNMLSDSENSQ

T9: LIN7B, Q9HAP6
T9 sequence (Q9HAP6 88-185, limits assumed, looked up): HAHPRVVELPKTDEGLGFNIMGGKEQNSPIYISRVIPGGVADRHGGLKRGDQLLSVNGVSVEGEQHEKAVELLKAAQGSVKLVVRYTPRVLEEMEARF

T10: MPP2, Q14168
T10 sequence (Q14168 180-250, limits assumed, looked up): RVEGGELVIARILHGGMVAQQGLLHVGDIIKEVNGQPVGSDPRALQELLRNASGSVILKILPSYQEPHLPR

T11: RHPN1, Q8TCX5
T11 sequence (Q8TCX5 508-602, limits assumed, looked up): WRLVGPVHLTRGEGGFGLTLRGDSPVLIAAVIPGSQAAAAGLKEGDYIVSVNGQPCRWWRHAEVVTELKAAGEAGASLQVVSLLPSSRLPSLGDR


Experiments:
Assay in all cases: holdup assay
Parameters in all cases: key: below the threshold = too weak to quantify, mostly under pKd 3.1 to 4
Conditions in all cases: plain residues with an end cap or a label only (N-terminal biotin on a linker: ado-ado)
NHERF4_1, Q86UT5-2 = target: NHERF4_1, Q86UT5-2
HTRA2, O43464 = target: HTRA2, O43464
GRIP2_3, Q9C0E4 = target: GRIP2_3, Q9C0E4
TX1BP3, O14907 = target: T1, TX1BP3, O14907
HTRA1, Q92743 = target: HTRA1, Q92743
IL16_4, Q14005 = target: IL16_4, Q14005
FRMPD1, Q5SYB0 = target: T2, FRMPD1, Q5SYB0
IL16_1, Q14005 = target: IL16_1, Q14005
DLG4_3, P78352 = target: DLG4_3, P78352
DLG4_2, P78352 = target: DLG4_2, P78352
PARD3_3, Q8TEW0 = target: PARD3_3, Q8TEW0
FRMPD2_1, Q68DX3 = target: FRMPD2_1, Q68DX3
PDLIM1, O00151 = target: PDLIM1, O00151
LIMK2, P53671 = target: LIMK2, P53671
SNTA1, Q13424 = target: T3, SNTA1, Q13424
Inadl_8, Q8NI35 = target: Inadl_8, Q8NI35
LNX2_2, Q8N448 = target: T4, LNX2_2, Q8N448
PDZRN3_1, Q9UPQ7 = target: T5, PDZRN3_1, Q9UPQ7
DLG3_1, Q92796 = target: T6, DLG3_1, Q92796
SNTG2, Q9NY99 = target: T7, SNTG2, Q9NY99
IL16_3, Q14005 = target: IL16_3, Q14005
SNX27, Q96L92 = target: SNX27, Q96L92
PCLO, Q9Y6V0 = target: T8, PCLO, Q9Y6V0
LIN7B, Q9HAP6 = target: T9, LIN7B, Q9HAP6
MPP2, Q14168 = target: T10, MPP2, Q14168
Inadl_4, Q8NI35 = target: Inadl_4, Q8NI35
RHPN1, Q8TCX5 = target: T11, RHPN1, Q8TCX5

DLG4_2, P78352, sequence (P78352 155-259): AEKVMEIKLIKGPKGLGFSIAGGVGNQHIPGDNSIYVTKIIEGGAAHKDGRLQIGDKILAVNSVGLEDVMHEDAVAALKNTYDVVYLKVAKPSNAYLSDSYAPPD
PARD3_3, Q8TEW0, sequence (Q8TEW0 582-685): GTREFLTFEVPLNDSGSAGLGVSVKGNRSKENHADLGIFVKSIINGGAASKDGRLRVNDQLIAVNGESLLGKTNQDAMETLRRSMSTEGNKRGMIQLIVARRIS
PDLIM1, O00151, sequence (O00151 1-87): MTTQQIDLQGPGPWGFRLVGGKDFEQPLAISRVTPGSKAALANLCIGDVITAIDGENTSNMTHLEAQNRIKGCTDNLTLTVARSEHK
Inadl_8, Q8NI35, sequence (Q8NI35 1425-1530): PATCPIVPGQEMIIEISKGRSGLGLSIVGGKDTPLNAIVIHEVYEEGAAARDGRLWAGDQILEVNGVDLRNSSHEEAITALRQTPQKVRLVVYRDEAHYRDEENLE
DLG4_3, P78352, sequence (P78352 306-403): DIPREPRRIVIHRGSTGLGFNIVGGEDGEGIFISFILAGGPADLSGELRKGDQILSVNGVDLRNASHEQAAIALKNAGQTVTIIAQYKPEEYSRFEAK
IL16_1, Q14005, sequence (Q14005 210-306): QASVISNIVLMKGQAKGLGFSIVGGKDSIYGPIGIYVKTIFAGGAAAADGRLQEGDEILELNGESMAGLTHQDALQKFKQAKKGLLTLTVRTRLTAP
IL16_4, Q14005, sequence (Q14005 1229-1329): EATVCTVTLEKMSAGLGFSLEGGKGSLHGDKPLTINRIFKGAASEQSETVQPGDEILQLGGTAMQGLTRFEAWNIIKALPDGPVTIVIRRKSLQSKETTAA
Inadl_4, Q8NI35, sequence (Q8NI35 547-651): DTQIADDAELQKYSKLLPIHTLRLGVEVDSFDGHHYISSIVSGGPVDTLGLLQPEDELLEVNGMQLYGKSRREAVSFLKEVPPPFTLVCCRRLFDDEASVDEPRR
FRMPD2_1, Q68DX3, sequence (Q68DX3 770-861): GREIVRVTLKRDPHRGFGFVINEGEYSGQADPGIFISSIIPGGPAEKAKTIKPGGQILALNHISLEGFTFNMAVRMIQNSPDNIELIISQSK
GRIP2_3, Q9C0E4, sequence (Q9C0E4 238-339): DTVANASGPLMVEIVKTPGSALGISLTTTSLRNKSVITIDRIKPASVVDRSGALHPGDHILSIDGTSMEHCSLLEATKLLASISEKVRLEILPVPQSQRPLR
HTRA1, Q92743, sequence (Q92743 360-477): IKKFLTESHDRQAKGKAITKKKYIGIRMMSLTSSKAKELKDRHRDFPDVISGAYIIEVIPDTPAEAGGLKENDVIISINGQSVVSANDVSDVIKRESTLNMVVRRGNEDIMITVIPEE
NHERF4_1, Q86UT5-2, sequence (Q86UT5 other isoform, or with tags, fused parts or gaps): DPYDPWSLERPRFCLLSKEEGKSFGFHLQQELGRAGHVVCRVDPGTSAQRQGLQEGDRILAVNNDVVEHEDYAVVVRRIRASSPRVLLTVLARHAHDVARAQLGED
HTRA2, O43464, sequence (O43464 355-458): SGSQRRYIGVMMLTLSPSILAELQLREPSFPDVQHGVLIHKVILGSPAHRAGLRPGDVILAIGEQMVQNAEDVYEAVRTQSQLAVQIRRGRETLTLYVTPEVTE
IL16_3, Q14005, sequence (Q14005 1107-1207): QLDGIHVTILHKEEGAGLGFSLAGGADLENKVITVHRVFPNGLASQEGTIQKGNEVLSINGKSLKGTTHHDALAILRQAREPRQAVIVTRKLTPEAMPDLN
LIMK2, P53671, sequence (P53671 143-248): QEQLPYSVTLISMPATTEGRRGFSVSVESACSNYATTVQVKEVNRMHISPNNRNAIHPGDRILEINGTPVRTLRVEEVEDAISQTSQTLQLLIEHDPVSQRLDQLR

Binder | pKd (NHERF4_1, Q86UT5-2) | pKd (HTRA2, O43464) | pKd (GRIP2_3, Q9C0E4) | pKd (TX1BP3, O14907) | pKd (HTRA1, Q92743) | pKd (IL16_4, Q14005) | pKd (FRMPD1, Q5SYB0) | pKd (IL16_1, Q14005) | pKd (DLG4_3, P78352) | pKd (DLG4_2, P78352) | pKd (PARD3_3, Q8TEW0) | pKd (FRMPD2_1, Q68DX3) | pKd (PDLIM1, O00151) | pKd (LIMK2, P53671) | pKd (SNTA1, Q13424) | pKd (Inadl_8, Q8NI35) | pKd (LNX2_2, Q8N448) | pKd (PDZRN3_1, Q9UPQ7) | pKd (DLG3_1, Q92796) | pKd (SNTG2, Q9NY99) | also measured
LDKESFLTWL [YAP1, P46937] | 4.15 | 4.73 | below the threshold | 4.26 | 5.58 | below the threshold | below the threshold | 3.55 | below the threshold | below the threshold | 4.98 | below the threshold | 4.1 | below the threshold | below the threshold | 3.48 | 4.38 | 3.73 | below the threshold | below the threshold | pKd (IL16_3, Q14005): below the threshold; pKd (SNX27, Q96L92): 5.11; pKd (PCLO, Q9Y6V0): 3.57; pKd (LIN7B, Q9HAP6): 3.48; pKd (MPP2, Q14168): below the threshold; pKd (Inadl_4, Q8NI35): below the threshold; pKd (RHPN1, Q8TCX5): 4.7
AEDEEIQTKM [UNC93A, Q86WB7] | below the threshold | below the threshold | below the threshold | below the threshold | below the threshold | 3.52 | below the threshold | below the threshold | below the threshold | below the threshold | below the threshold | below the threshold | below the threshold | below the threshold | below the threshold | below the threshold | below the threshold | below the threshold | below the threshold | below the threshold | pKd (IL16_3, Q14005): below the threshold; pKd (SNX27, Q96L92): 4.5; pKd (PCLO, Q9Y6V0): below the threshold; pKd (LIN7B, Q9HAP6): below the threshold; pKd (MPP2, Q14168): below the threshold; pKd (Inadl_4, Q8NI35): below the threshold; pKd (RHPN1, Q8TCX5): 3.67
SVISRREWYV [NECTIN3, Q9NQS3] | 3.49 | 4.6 | below the threshold | below the threshold | 5.62 | below the threshold | below the threshold | 3.88 | 3.84 | 3.75 | 4.75 | 4.51 | below the threshold | below the threshold | 3.48 | 3.98 | 5.15 | below the threshold | below the threshold | below the threshold | pKd (IL16_3, Q14005): below the threshold; pKd (SNX27, Q96L92): below the threshold; pKd (PCLO, Q9Y6V0): below the threshold; pKd (LIN7B, Q9HAP6): below the threshold; pKd (MPP2, Q14168): 4.57; pKd (Inadl_4, Q8NI35): below the threshold; pKd (RHPN1, Q8TCX5): below the threshold
NRVDSKETEC [ADAM17, P78536] | 3.68 | below the threshold | below the threshold | below the threshold | 3.56 | 3.6 | below the threshold | below the threshold | 4.42 | 4.34 | below the threshold | below the threshold | below the threshold | 3.48 | 4.7 | below the threshold | 3.5 | 3.57 | 3.77 | 4.06 | pKd (IL16_3, Q14005): below the threshold; pKd (SNX27, Q96L92): 5.06; pKd (PCLO, Q9Y6V0): below the threshold; pKd (LIN7B, Q9HAP6): 4.05; pKd (MPP2, Q14168): below the threshold; pKd (Inadl_4, Q8NI35): below the threshold; pKd (RHPN1, Q8TCX5): below the threshold
